Measurements reported in the domain aggregation screens of Martell et al. (2025).

Assay: soluble fraction after stress (log2 fold change); higher = more stays soluble; pooled small domains, quantitative proteomics
Conditions: stress: 75 degC
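Further: 20 min heating vs room temperature control held 20 min.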

Sequence: HMRPEVTEHLKTADAILHGGDINRQSIVDELRQYAPLYIVRGNNDKDWAEAIPHDLTVTLGGVTFFMVHNR
- soluble fraction (log2): -0.0851

Sequence: HMRPFAMNLLEKHKADIEVWLKHPNMTNTQIKRLLEELGTSVSVSSIDRFISTSFPKLPKHT
- soluble fraction (log2): -0.121

Sequence: HMRPIWVQLADDFRHRIVSGQWPPGSKIPSVRELAAETGVNPNTVQRALGALDGEGLTATERTAGRFVTT
- soluble fraction (log2): -0.266

Sequence: HMRPKVADIDYFDGKTFTIEDGSKHSITTSEAKKIYFYLVKNGYVDDESHVTDAYRSAATSGTLA
- soluble fraction (log2): 0.0416

Sequence: HMRPQELSSLNTNQMRLYNSLPEAFITAEAKDIADKLRYSERSLFRFLNESNLFTKTEHGSYAKKA
- soluble fraction (log2): 0.0879

Sequence: HMRPQYVDLFTKLSAEEAGAITSKLKELKVEYQLADNGSTIKVPQKDAAEIRLELANEGLPA
- soluble fraction (log2): 0.138

Sequence: HMRPRQDRSEETRDRILDAVVELIAERGLAGVSHRAVADRAGVSLSATSYYFGSKAELERAALEEHYRR
- soluble fraction (log2): -0.881

Sequence: HMRPSGEAVNAAYRLLKGANPSGNEGDLIQRAQEVAAILPKLNRSSAAAFAKDAKANGLTQAETIALWKGS
- soluble fraction (log2): 0.135

Sequence: HMRPTYRTRLEVLINNPAISGRDLDFAQSLLSYYERKGRLSAGRVKWVTTLEERYSPENLAASAAK
- soluble fraction (log2): -0.856

Sequence: HMRQFEPVEGYNPYADKNELHGYEYWGAKFADSRSPEETAWIKQQIDDENEDRRFISEAGLA
- soluble fraction (log2): 0.0889

Sequence: HMRQQQISAAIKTSVNGTVDYYVRRLPERDPRGDFLEVWDDLQKVIQAAHGIQVSHDELYEYFRRLK
- soluble fraction (log2): -0.833

Sequence: HMRQQSLHSLYRDHHSWLQNWLRRQLGNTWDAADLSQDTFIKVLASSQSVAEIREPRAYLLTVGKRL
- soluble fraction (log2): -0.294

Sequence: HMRQSDIAAAFRESILRSSKGFQYLHTRDFVTALRRRGIHLSEVEANSWIAREKTYFVDSALDHSENRLWI
- soluble fraction (log2): -1.65

Sequence: HMRQSIHTALQLLTPREEEVLNLLVSGKSNKQVAEHFSLSSKTIERHRSSVMRKLDASSFAQLVRIAALR
- soluble fraction (log2): -3.27

Sequence: HMRQYPSGVFKEEGVKAVYIHAGTPFLVIAAQYKIPLARLFEWNNLLPSTEARISQVIYLERPG
- soluble fraction (log2): -3.92

Sequence: HMRRARVAGKGHFTGEDAMAVYRELEALFGETETLYLPGHRPFEAVLSKLALIGVPEKNTVPYTFAFVET
- soluble fraction (log2): -0.392

Sequence: HMRREIRLTVTEEIVLMKFLLTQIPYKNRDNFKTLLNDRQIRVNGSVVTWYNHPLKPGQEVTIGWFKM
- soluble fraction (log2): -0.264

Sequence: HMRRPRGVFNLVPGKRFGFITPDGGGEDVFAHLANVRAGHVAEDRNAVEYGIGRGPDGRDQAVDIVPMP
- soluble fraction (log2): -0.329

Sequence: HMRRQRNPEIFDQLVNKFHFTFTQTQQLKQLIKRWHMLFPGKSLKSAIQGYKSAKEILTYINDSLDVVE
- soluble fraction (log2): 0.213

Sequence: HMRRRTLRQGATGSDVHAVQRLLNVDGAGLRTDGIFGPATERAVIAYQRKHGLAVDGVVGRETWTALLG
- soluble fraction (log2): -0.743

Sequence: HMRRSDLVTQGDEILKRLQWNQQQAKDFLNQHLKASSRQQLTDEQLLNFNMLLEEQLVKSME
- soluble fraction (log2): 0.426

Sequence: HMRRSLIGPTVRERRRALGITQSRLAAEVGISASYLNLIEGDKRNIGGALLQRIAGALGLALD
- soluble fraction (log2): -3.08

Sequence: HMRRTVIVTAAHAEIRERPDANAPLVFSAEQKVSLDYQETAPGGWVKVRHRDGQSGYVRTNQI
- soluble fraction (log2): -0.716

Sequence: HMRRVGTALNRSHKVSYGESIQSIAARYNVNPTMLREYNRLKPEATITPGQILRIPPATIAS
- soluble fraction (log2): -0.481

Sequence: HMRRVRRTRRLLQDGLLGLMQHKAVADISVKELAEAADVARATVYVHFKDPADVLHQLEQGLY
- soluble fraction (log2): 0.091

Sequence: HMRSDHVFTSHLARRDKYISELESLSDSARDDHIQTIKEEDEYLLKYRRTRNLFGIPLNDEMKQFEPFNY
- soluble fraction (log2): -0.228

Sequence: HMRSEILNLLREKSPQPVSGQDLANHFGITRTAVWKHIQSLKKMGYGIEAYTKKGYVLVSVPN
- soluble fraction (log2): -0.159

Sequence: HMRSGEDESFSAGLLEYPHYTRPAEFEGHRIPDILTSGDHAKVDAWRQEMSEHITRERRPDLWEMYKKK
- soluble fraction (log2): 0.13

Sequence: HMRSHLSANLQRLRHIAGLTQKDLALAANLPRATLASLEQGEANPRLDTLLAVASALQVGLDELIAAP
- soluble fraction (log2): -1.32

Sequence: HMRSIMAVSNYRHKKILEMVYQRKSVSADELAAEFGVSKITIRRDLDTLAMDKLLERTRGGAISISD
- soluble fraction (log2): -3.14

Sequence: HMRSRHYRFSTPFLDRLIAEIDWNSDNALSIFNQKLVHFDFLKYFSAIQPGSIVEIENLNFIWTGKRLEAH
- soluble fraction (log2): -3.37

Sequence: HMRSVLSDEIYLLIRKMIFNYEILPGAKVNIDALAKKLDVSQTPVREALSRLESDGLIVKEPLKGFRATD
- soluble fraction (log2): -2.72

Sequence: HMRSVPNVAGLGMDGAAFQLGKAGFAIGTITPADDPKAVVGSIQRTEPAAGTVADRDTVVNLFQV
- soluble fraction (log2): 0.228

Sequence: HMRSVTLQTDREGDILYVDGKQIGVSPQRLELSYGVHTIRAERGEQHTEKELEVTETGGETVVTLGFG
- soluble fraction (log2): 0.375

Sequence: HMRSYTPGSAFRLSSVPVYNAETGPSIGVRSGTYYIHSLPVSNGRIRMTNLISRVGKPGQVSFWVEISR
- soluble fraction (log2): -3.11

Sequence: HMRTAELEVWDDDELNDVVKLIQNNHNINTLKLRFQENVSFSGLSLIAAVLTKQSIILEIEY
- soluble fraction (log2): 0.235

Sequence: HMRTDQYHYLAWKQVADELGIPFDEQVNERLRGVSRMASFDIILERYDGTMSDEEKIHWTDKKNEIYKSM
- soluble fraction (log2): -0.603

Sequence: HMRTGLSGMIGEIGIVKQAIDPEGKVAVHGELWKARADVALAAGQTVRVVAVDGLTMTVEATDSK
- soluble fraction (log2): -0.661

Sequence: HMRTIPDALIGRPYESVETAIVLEGLQAKRTEVFHPTIRPGTVIRLEPTSGSELLRDGVVEIFVSQGPETT
- soluble fraction (log2): 0.157

Sequence: HMRTITIDDSIAGKRLDEALTLLGAESSRTKVKLLFSSPNGVLVNGEKEKPHYRVEAGDVIQFGELPKK
- soluble fraction (log2): 0.541

Sequence: HMRTKEGLASQLEKIPGIGPVKRKALLKKFGSIDAIAAASKEELMLTDGITSSLADAIRDYF
- soluble fraction (log2): -0.0754

Sequence: HMRTLKDSTEYLIRSMLLRGEMKVGEIYSANALAKELNISNSPVREAMMSLVDRGLLENVRNRGFRVV
- soluble fraction (log2): -1.83

Sequence: HMRTLRENIMDYFKQQTIIQKSSVILLPMSKRQLADYFGVQRPSLFRELKKLKEEGIIEINNRTITIK
- soluble fraction (log2): -1.8

Sequence: HMRTSIWTAIAHSLRSDIGSGVYGPDDKLPTESALAARFGVNRHTVRHAIKALTDEGLVLPRRGAGVFVTS
- soluble fraction (log2): -0.241

Sequence: HMRTSPGADYEKTYYTIQSGDNLGAIAEKMGVSVADLKDWNDISGTKIYAGKKLVIYVKKGST
- soluble fraction (log2): -0.351

Sequence: HMRTTTGSEGMIGSIGKAKTDLAPDGKIFIHGELWDATSSSPVSAGQKIEVTQIEGLKLHVKPVL
- soluble fraction (log2): 0.7

Sequence: HMRTVLSDETYLRIREMLLTHDIAPGERINIDALARELDVSQTPVREALARLESEDLVTKEPLRGYTATK
- soluble fraction (log2): -0.0533

Sequence: HMRTYEHALTEEEKELILIVSNLSEYKSLPPSQIVPKLADLGIYIASESSFYRVLRAHNQLHHRGR
- soluble fraction (log2): -2.75

Sequence: HMRTYYEILGVSKNASLHEIQKAYRELALKYHPKNNSDPTAEEKFTQINEAYTHLSDAARRRSYDDL
- soluble fraction (log2): 0.554

Sequence: HMRVGADLTQRERELLALMAQGMSNQEIAKRLEIAVPTVKFHITNILDKLQVGNRTEAVIAALEHKLVP
- soluble fraction (log2): -0.704

Sequence: HMRVKLVKKSILASGGENIRVDKFLSNHILTMTRTQIKKLFLDGLVQVNKSFVKPGSILKGNEIITFSIPE
- soluble fraction (log2): -1.68

Sequence: HMRVNINVSENILDWVMKRVNPSVLSSKQGELLYAWKEGRKVPTYNQIEKMSKVTGIPLGYFFLEKPPVE
- soluble fraction (log2): -1.45

Sequence: HMRVPQWLVDKIAAAGIDTHRSGPALKALAAKAGTPEQLDQAIARAKALRRRTGSTQSLNVGLLGSILEGT
- soluble fraction (log2): -0.345

Sequence: HMRVQELARDLGVEADTLIALLRQMGIPVTGARSAINDAQQAKVLAKIERERRAGHSDPAKAIQAVLEEAS
- soluble fraction (log2): 0.00503

Sequence: HMRVSNADALIGRRGKANSDIRRGDYGWVAIDGDVWKSKLADDITEDIPMGAIVEVLSRDSIILTVKP
- soluble fraction (log2): -0.926
